EP4566619A1 (AvenCell Therapeutics Inc., dated 2025)

T1: CD20 (UniProt P11836 1-297, limits assumed)
T1 sequence (looked up): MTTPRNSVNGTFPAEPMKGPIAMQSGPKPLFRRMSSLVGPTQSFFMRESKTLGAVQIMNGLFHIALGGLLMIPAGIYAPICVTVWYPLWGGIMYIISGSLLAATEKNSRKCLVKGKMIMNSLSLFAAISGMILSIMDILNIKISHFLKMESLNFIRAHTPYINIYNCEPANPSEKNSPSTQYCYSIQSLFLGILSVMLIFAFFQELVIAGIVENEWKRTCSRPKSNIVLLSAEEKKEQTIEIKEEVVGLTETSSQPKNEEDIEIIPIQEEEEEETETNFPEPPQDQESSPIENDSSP

T2: CD19 (UniProt P15391 20-556, limits assumed)
T2 sequence (looked up): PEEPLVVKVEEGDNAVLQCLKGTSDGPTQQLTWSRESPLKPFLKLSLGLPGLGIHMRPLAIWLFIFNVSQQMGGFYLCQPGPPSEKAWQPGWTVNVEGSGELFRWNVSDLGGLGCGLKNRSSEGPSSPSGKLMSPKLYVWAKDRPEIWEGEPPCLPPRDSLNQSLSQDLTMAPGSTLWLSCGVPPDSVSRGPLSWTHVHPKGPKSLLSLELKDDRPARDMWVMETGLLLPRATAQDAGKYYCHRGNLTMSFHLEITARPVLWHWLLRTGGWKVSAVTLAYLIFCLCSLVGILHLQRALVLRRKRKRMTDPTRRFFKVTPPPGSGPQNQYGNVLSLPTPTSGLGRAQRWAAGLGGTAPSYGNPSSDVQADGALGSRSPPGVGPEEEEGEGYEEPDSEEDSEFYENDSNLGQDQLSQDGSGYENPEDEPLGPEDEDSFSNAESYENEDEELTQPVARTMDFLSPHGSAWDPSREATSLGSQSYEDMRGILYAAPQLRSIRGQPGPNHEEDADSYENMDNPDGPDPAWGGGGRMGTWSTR


Assays:
CD20 [1] = biological target: T1, CD20; experiment: cell-based or functional assay
CD19 [2] = biological target: T2, CD19; experiment: cell-based or functional assay
CD19 [3] = biological target: T2, CD19; experiment: cellular binding assay, flow cytometry (gMFI) on OCI-AML3-CD19 cells
CD20 [4] = biological target: T1, CD20; experiment: cellular binding assay, flow cytometry (gMFI) on OCI-AML3-CD20 cells

Row | Binder | CD20 killing EC50 [pM] (CD20 [1]) | CD19 killing EC50 [pM] (CD19 [2]) | EC50 (CD19 [3]) [nM] | EC50 (CD20 [4]) [nM]
1 | R-TM-19/20_2 (other, also called R-TM 19/20_02) chain 1: not shown chain 2: GQVQLVQSGAEVKKPGASVKVSCKASGYTFTHYYIYWVRQAPGQGLEWMGGVNPSNGGTHFNEKFKSRVTMTRDTSISTAYMELSRLRSDDTAVYYCARSEYDYGLGFAYWGQGTLVTVSSASTKGPSVFPLAPSSKSTSGGTAALGCLVKDYFPEPVTVSWNSGALTSGVHTFPAVLQSSGLYSLSSVVTVPSSSLGTQTYICNVNHKPSNTKVDKKVEPKSCDKTHTCPPCPAPPVAGPSVFLFPPKPKDTLMISRTPEVTCVVVDVSHEDPEVKFNWYVDGVEVHNAKTKPREEQYNSTYRVVSVLTVLHQDWLNGKEYKCKVSNKGLPSSIEKTISKAKGQPREPQVYTLPPSRDELTKNQVSLWCLVKGFYPSDIAVEWESNGQPENNYKTTPPVLDSDGSFFLYSKLTVDKSRWQQGNVFSCSVMHEALHNHYTQKSLSLSPGK chain 3: GQVQLVESGGGLVQPGGSLRLSCAASGRTFSNYNMGWFRQAPGQGLEFVAAIDWSGGSPYYADSVKGRFTISRDNSKNTLYLQMNSLRAEDTAVYYCAAPLSYGSTWLADYWGQGTLVTVSSEPKSCDKTHTCPPCPAPPVAGPSVFLFPPKPKDTLMISRTPEVTCVVVDVSHEDPEVKFNWYVDGVEVHNAKTKPREEQYNSTYRVVSVLTVLHQDWLNGKEYKCKVSNKGLPSSIEKTISKAKGQPREPQVYTLPPSRDELTKNQVSLSCAVKGFYPSDIAVEWESNGQPENNYKTTPPVLDSDGSFFLVSKLTVDKSRWQQGNVFSCSVMHEALHNHYTQKSLSLSPGK | 7.2 | 3.8 | 18.4 | 43.6
2 | R-TM-19/20_15 (other, Three-chain CD19/CD20 targeting module) chain 1: not shown chain 2: GQVQLVQSGAEVKKPGASVKVSCKASGYTFTHYYIYWVRQAPGQGLEWMGGVNPSNGGTHFNEKFKSRVTMTRDTSISTAYMELSRLRSDDTAVYYCARSEYDYGLGFAYWGQGTLVTVSSASTKGPSVFPLAPSSKSTSGGTAALGCLVKDYFPEPVTVSWNSGALTSGVHTFPAVLQSSGLYSLSSVVTVPSSSLGTQTYICNVNHKPSNTKVDKKVEPKSCDKTHTCPPCPAPPVAGPSVFLFPPKPKDTLMISRTPEVTCVVVDVSHEDPEVKFNWYVDGVEVHNAKTKPREEQYNSTYRVVSVLTVLHQDWLNGKEYKCKVSNKGLPSSIEKTISKAKGQPREPQVYTLPPSRDELTKNQVSLWCLVKGFYPSDIAVEWESNGQPENNYKTTPPVLDSDGSFFLYSKLTVDKSRWQQGNVFSCSVMHEALHNHYTQKSLSLSPGK chain 3: GQVQLVESGGGLVQPGGSLRLSCAASGRTFSNYNMGWFRQAPGQGLEFVAAIDWSGGSPYYADSVKGRFTISRDNSKNTLYLQMNSLRAEDTAVYYCAAPLSYGSTWLADYWGQGTLVTVSSGGGGSGGGGSQVQLVESGGGLVQPGGSLRLSCAASGRTFSNYNMGWFRQAPGQGLEFVAAIDWSGGSPYYADSVKGRFTISRDNSKNTLYLQMNSLRAEDTAVYYCAAPLSYGSTWLADYWGQGTLVTVSSEPKSCDKTHTCPPCPAPPVAGPSVFLFPPKPKDTLMISRTPEVTCVVVDVSHEDPEVKFNWYVDGVEVHNAKTKPREEQYNSTYRVVSVLTVLHQDWLNGKEYKCKVSNKGLPSSIEKTISKAKGQPREPQVYTLPPSRDELTKNQVSLSCAVKGFYPSDIAVEWESNGQPENNYKTTPPVLDSDGSFFLVSKLTVDKSRWQQGNVFSCSVMHEALHNHYTQKSLSLSPGK | 10.7 | 1.2 | 3.7 | 45.5
3 | R-TM-19/20_11 (other, Three-chain CD19/CD20 targeting module) chain 1: not shown chain 2: GQVQLVQSGAEVKKPGASVKVSCKASGYTFTHYYIYWVRQAPGQGLEWMGGVNPSNGGTHFNEKFKSRVTMTRDTSISTAYMELSRLRSDDTAVYYCARSEYDYGLGFAYWGQGTLVTVSSASTKGPSVFPLAPSSKSTSGGTAALGCLVKDYFPEPVTVSWNSGALTSGVHTFPAVLQSSGLYSLSSVVTVPSSSLGTQTYICNVNHKPSNTKVDKKVEPKSCDKTHTCPPCPAPPVAGPSVFLFPPKPKDTLMISRTPEVTCVVVDVSHEDPEVKFNWYVDGVEVHNAKTKPREEQYNSTYRVVSVLTVLHQDWLNGKEYKCKVSNKGLPSSIEKTISKAKGQPREPQVYTLPPSRDELTKNQVSLWCLVKGFYPSDIAVEWESNGQPENNYKTTPPVLDSDGSFFLYSKLTVDKSRWQQGNVFSCSVMHEALHNHYTQKSLSLSPGK chain 3: EVQLVESGGGLVQPGGSLRLSCAASGFSFSDFWMSWVRQAPGKGLEWVATISQAGSEKDYVDSVKGRFTISRDNAKKSLYLQMNSLRAEDTAVYYCASGVYSFDYRGQGTLVTVSSEPKSCDKTHTCPPCPAPPVAGPSVFLFPPKPKDTLMISRTPEVTCVVVDVSHEDPEVKFNWYVDGVEVHNAKTKPREEQYNSTYRVVSVLTVLHQDWLNGKEYKCKVSNKGLPSSIEKTISKAKGQPREPQVYTLPPSRDELTKNQVSLSCAVKGFYPSDIAVEWESNGQPENNYKTTPPVLDSDGSFFLVSKLTVDKSRWQQGNVFSCSVMHEALHNHYTQKSLSLSPGKGGGGSGGGGSGGGGSQVQLVESGGGLVQPGGSLRLSCAASGRTFSNYNMGWFRQAPGQGLEFVAAIDWSGGSPYYADSVKGRFTISRDNSKNTLYLQMNSLRAEDTAVYYCAAPLSYGSTWLADYWGQGTLVTVSS | 17.9 | 3.8 | 5.2 | 62
4 | R-TM-19/20_8 (other, Three-chain CD19/CD20 targeting module; also called R-TM 19/20_08) chain 1: not shown chain 2: GQVQLVQSGAEVKKPGASVKVSCKASGYTFTHYYIYWVRQAPGQGLEWMGGVNPSNGGTHFNEKFKSRVTMTRDTSISTAYMELSRLRSDDTAVYYCARSEYDYGLGFAYWGQGTLVTVSSASTKGPSVFPLAPSSKSTSGGTAALGCLVKDYFPEPVTVSWNSGALTSGVHTFPAVLQSSGLYSLSSVVTVPSSSLGTQTYICNVNHKPSNTKVDKKVEPKSCDKTHTCPPCPAPPVAGPSVFLFPPKPKDTLMISRTPEVTCVVVDVSHEDPEVKFNWYVDGVEVHNAKTKPREEQYNSTYRVVSVLTVLHQDWLNGKEYKCKVSNKGLPSSIEKTISKAKGQPREPQVYTLPPSRDELTKNQVSLWCLVKGFYPSDIAVEWESNGQPENNYKTTPPVLDSDGSFFLYSKLTVDKSRWQQGNVFSCSVMHEALHNHYTQKSLSLSPGK chain 3: GQVQLVESGGGLVQPGGSLRLSCAASGRTFSNYNMGWFRQAPGQGLEFVAAIDWSGGSPYYADSVKGRFTISRDNSKNTLYLQMNSLRAEDTAVYYCAAPLSYGSTWLADYWGQGTLVTVSSGGGGSGGGGSGGGGSEVQLVESGGGLVQPGGSLRLSCAASGFSFSDFWMSWVRQAPGKGLEWVATISQAGSEKDYVDSVKGRFTISRDNAKKSLYLQMNSLRAEDTAVYYCASGVYSFDYRGQGTLVTVSSEPKSCDKTHTCPPCPAPPVAGPSVFLFPPKPKDTLMISRTPEVTCVVVDVSHEDPEVKFNWYVDGVEVHNAKTKPREEQYNSTYRVVSVLTVLHQDWLNGKEYKCKVSNKGLPSSIEKTISKAKGQPREPQVYTLPPSRDELTKNQVSLSCAVKGFYPSDIAVEWESNGQPENNYKTTPPVLDSDGSFFLVSKLTVDKSRWQQGNVFSCSVMHEALHNHYTQKSLSLSPGK | 14.2 | 7.1 | 14.8 | 37
5 | R-TM-19/20_3 (other, Three-chain CD19/CD20 targeting module; also called R-TM 19/20_03) chain 1: not shown chain 2: GQVQLVQSGAEVKKPGASVKVSCKASGYTFTHYYIYWVRQAPGQGLEWMGGVNPSNGGTHFNEKFKSRVTMTRDTSISTAYMELSRLRSDDTAVYYCARSEYDYGLGFAYWGQGTLVTVSSASTKGPSVFPLAPSSKSTSGGTAALGCLVKDYFPEPVTVSWNSGALTSGVHTFPAVLQSSGLYSLSSVVTVPSSSLGTQTYICNVNHKPSNTKVDKKVEPKSCDKTHTCPPCPAPPVAGPSVFLFPPKPKDTLMISRTPEVTCVVVDVSHEDPEVKFNWYVDGVEVHNAKTKPREEQYNSTYRVVSVLTVLHQDWLNGKEYKCKVSNKGLPSSIEKTISKAKGQPREPQVYTLPPSRDELTKNQVSLWCLVKGFYPSDIAVEWESNGQPENNYKTTPPVLDSDGSFFLYSKLTVDKSRWQQGNVFSCSVMHEALHNHYTQKSLSLSPGK chain 3: GQVQLVESGGGLVQPGGSLRLSCAASGRTFSNYNMGWFRQAPGQGLEFVAAIDWSGGSPYYAASVRGRFTISRDNSKNTLYLQMNSLRAEDTAVYYCAAPLSYGSTWLADYWGQGTLVTVSSEPKSCDKTHTCPPCPAPPVAGPSVFLFPPKPKDTLMISRTPEVTCVVVDVSHEDPEVKFNWYVDGVEVHNAKTKPREEQYNSTYRVVSVLTVLHQDWLNGKEYKCKVSNKGLPSSIEKTISKAKGQPREPQVYTLPPSRDELTKNQVSLSCAVKGFYPSDIAVEWESNGQPENNYKTTPPVLDSDGSFFLVSKLTVDKSRWQQGNVFSCSVMHEALHNHYTQKSLSLSPGK | 4.3 | 7.9 | 19 | 29.2
